From patent publication US20220332769A1 come the findings set out here.

Holding throughout (assay): cell-based or functional assay
Experiment [1] concerns the target SARS CoV-1 spike on pseudotyped lentivirus (CoV-1 PVP) (SARS CoV-1) (UniProt P59594).
In experiment [2] the target is Spike protein of live SARS CoV-2 virus (original USA-WA1/2020 strain) (SARS CoV-2) (UniProt P0DTC2).
Experiment [3] deals with MERS spike on pseudotyped lentivirus (MERS-PVP) (MERS coronavirus) (UniProt K9N5Q8).

A value given as a limit tells only on which side of the number the result lay.

In experiment [1], “ACE2-VGTM MVP (decoy multivalent particle displaying ACE2 fused with VSVG transmembrane domain)” gave an IC50, CoV-1 pseudovirus microneutralization assay, 293T/ACE2 target cells of 0.13 pM and an IC50, CoV-1 pseudovirus neutralization assay, VERO-E6 target cells of 0.44 pM. In experiment [2], this substance returned an IC50, live CoV-2 virus microneutralization assay of 57 pM; an IC50, live virus PRNT assay, USA-WA1/2020 strain of 0.98 pM; a reduction of viral titer, live CoV-2 virus microneutralization assay greater than 6 logs.
Regarding “HCΔ-DPP4 MVP (decoy multivalent particle displaying DPP4 extracellular domain fused to measles HCΔ18)”, the IC50, MERS pseudovirus microneutralization assay, H1650 target cells in experiment [3] turned out to be 2.96 pM.
Substance “NA75-DPP4 MVP (DPP4 extracellular domain fused to influenza neuraminidase N-terminus and transmembrane regions) (from UniProt P27487 30-766)” returned an IC50, MERS pseudovirus neutralization assay, H1650 target cells in experiment [3] of 0.87 pM.
Regarding “Recombinant DPP4 protein (from UniProt P27487 39-766) (receptor)”, the IC50, MERS pseudovirus microneutralization assay, H1650 target cells in experiment [3] was greater than 48000 pM.
